Test results as given in article PMC12173652.

Biological target: epidermal growth factor receptor (EGFR) (human (endogenous in HeLa)) (UniProt P00533)

pIII::EGF fusion displayed on the helper phage M13SW7-EGF (epidermal growth factor, GGGS linker, M13 minor coat protein pIII) (from UniProt P69168 19-424)
fold difference in luciferase expression (EGF^+/EGF^−), A549, mini phagemid, +TurboFect, 96 h: 9.96 fold | fold difference in luciferase expression (EGF^+/EGF^−), HeLa, full phagemid, +TurboFect, 96 h: 261 fold | fold difference in luciferase expression (EGF^+/EGF^−), HeLa, mini phagemid, +TurboFect, 96 h: 705 fold | fold difference in luciferase expression (EGF^+/EGF^−), HeLa, mini phagemid, −TurboFect, 96 h: 25.6 fold | fold difference in luciferase expression (EGF^+/EGF^−), MRC-5, full phagemid, −TurboFect, 96 h: 4.14 fold | fold difference in luciferase expression (EGF^+/EGF^−), MRC-5, mini phagemid, +TurboFect, 96 h: 5.73 fold
